Source: publication doi:10.1101/2024.07.02.601760, “Multi-dimensional demarcation of phylogenetic groups of plant 14-3-3 isoforms using biochemical signatures” (bioRxiv, 2024)

What was measured:
[1] = target: the molecule itself; assay: SEC-MALS; Superdex 200 Increase 10/300, 0.8 ml/min; 65 µl of ~3 mg/ml or 100 μM per monomer loaded; 20 mM Tris-HCl pH 7.5, 150 mM NaCl, 5 mM βME, 3 mM NaN3; samples before preparative SEC; self-association, monomers to dimer (small tetramer peak for six isoforms)
[2] = target: the molecule itself; assay: native gel or EMSA; native PAGE, Tris-glycine pH 8.6, 15% or 15-25% gradient acrylamide, 2 h at room temperature, samples 0.33 mg/ml in SEC buffer; self-association, dimer to monomers

B1: Arabidopsis thaliana 14-3-3 omega (natural protein)
chain: MASGREEFVYMAKLAEQAERYEEMVEFMEKVSAAVDGDELTVEERNLLSVAYKNVIGARRASWRIISSIEQKEESRGNDDHVTAIREYRSKIETELSGICDGILKLLDSRLIPAAASGDSKVFYLKMKGDYHRYLAEFKTGQERKDAAEHTLAAYKSAQDIANAELAPTHPIRLGLALNFSVFYYEILNSPDRACNLAKQAFDEAIAELDTLGEESYKDSTLIMQLLRDNLTLWTSD
notes: 14-3-3 omega, Arabidopsis thaliana, non-epsilion group; pET28a construct obtained by gene synthesis; source: E. coli BL21(DE3), purified (IMAC, thrombin cleavage of the His6-tag, subtractive IMAC, preparative SEC; aliquots before preparative SEC for SEC-MALS)
[1]
  stoichiometry N: 2

B2: Arabidopsis thaliana 14-3-3 mu (natural protein, UniProt Q96299 1-263, looked up)
chain: MGSGKERDTFVYLAKLSEQAERYEEMVESMKSVAKLNVDLTVEERNLLSVGYKNVIGSRRASWRIFSSIEQKEAVKGNDVNVKRIKEYMEKVELELSNICIDIMSVLDEHLIPSASEGESTVFFNKMKGDYYRYLAEFKSGNERKEAADQSLKAYEIATTAAEAKLPPTHPIRLGLALNFSVFYYEIMNAPERACHLAKQAFDEAISELDTLNEESYKDSTLIMQLLRDNLTLWTSDISEEGGDDAHKTNGSAKPGAGGDDAE
notes: 14-3-3 mu, Arabidopsis thaliana, epsilon group; pET28a construct obtained by gene synthesis; source: E. coli BL21(DE3), purified (IMAC, thrombin cleavage of the His6-tag, subtractive IMAC, preparative SEC; aliquots before preparative SEC for SEC-MALS)
[1]
  stoichiometry N: 2

B3: Arabidopsis thaliana 14-3-3 epsilon (natural protein, UniProt P48347 1-254, looked up)
chain: MENEREKQVYLAKLSEQTERYDEMVEAMKKVAQLDVELTVEERNLVSVGYKNVIGARRASWRILSSIEQKEESKGNDENVKRLKNYRKRVEDELAKVCNDILSVIDKHLIPSSNAVESTVFFYKMKGDYYRYLAEFSSGAERKEAADQSLEAYKAAVAAAENGLAPTHPVRLGLALNFSVFYYEILNSPESACQLAKQAFDDAIAELDSLNEESYKDSTLIMQLLRDNLTLWTSDLNEEGDERTKGADEPQDEN
notes: 14-3-3 epsilon, Arabidopsis thaliana, epsilon group; pET28a construct obtained by gene synthesis; source: E. coli BL21(DE3), purified (IMAC, thrombin cleavage of the His6-tag, subtractive IMAC, preparative SEC; aliquots before preparative SEC for SEC-MALS)
[1]
  stoichiometry N: 2

B4: Arabidopsis thaliana 14-3-3 phi (natural protein, UniProt P46077 1-267, looked up)
chain: MAAPPASSSAREEFVYLAKLAEQAERYEEMVEFMEKVAEAVDKDELTVEERNLLSVAYKNVIGARRASWRIISSIEQKEESRGNDDHVTTIRDYRSKIESELSKICDGILKLLDTRLVPASANGDSKVFYLKMKGDYHRYLAEFKTGQERKDAAEHTLTAYKAAQDIANAELAPTHPIRLGLALNFSVFYYEILNSPDRACNLAKQAFDEAIAELDTLGEESYKDSTLIMQLLRDNLTLWTSDMQDESPEEIKEAAAPKPAEEQKEI
notes: 14-3-3 phi, Arabidopsis thaliana, non-epsilon group; construct provided by Prof; Robert J. Ferl; source: E. coli C41(DE3), purified (IMAC, thrombin cleavage of the His6-tag, subtractive IMAC, preparative SEC; aliquots before preparative SEC for SEC-MALS)
[1]
  stoichiometry N: 2

B5: Arabidopsis thaliana 14-3-3 chi (natural protein, UniProt P42643 1-267, looked up)
chain: MATPGASSARDEFVYMAKLAEQAERYEEMVEFMEKVAKAVDKDELTVEERNLLSVAYKNVIGARRASWRIISSIEQKEESRGNDDHVSLIRDYRSKIETELSDICDGILKLLDTILVPAAASGDSKVFYLKMKGDYHRYLAEFKSGQERKDAAEHTLTAYKAAQDIANSELAPTHPIRLGLALNFSVFYYEILNSPDRACNLAKQAFDEAIAELDTLGEESYKDSTLIMQLLRDNLTLWTSDMQDDVADDIKEAAPAAAKPADEQQS
notes: 14-3-3 chi, Arabidopsis thaliana, non-epsilon group; source: E. coli BL21(DE3), purified (IMAC, thrombin cleavage of the His6-tag, subtractive IMAC, preparative SEC; aliquots before preparative SEC for SEC-MALS)
[1]
  stoichiometry N: 2

B6: Arabidopsis thaliana 14-3-3 iota T32F (natural protein, UniProt Q9C5W6 1-268, looked up)
chain: MSSSGSDKERETFVYMAKLSEQAERYDEMVEFMKKVARVNSELTVEERNLLSVGYKNVIGARRASWRIMSSIEQKEESKGNESNVKQIKGYRQKVEDELANICQDILTIIDQHLIPHATSGEATVFYYKMKGDYYRYLAEFKTEQERKEAAEQSLKGYEAATQAASTELPSTHPIRLGLALNFSVFYYEIMNSPERACHLAKQAFDEAIAELDTLSEESYKDSTLIMQLLRDNLTLWTSDLPEDGGEDNIKTEESKQEQAKPADATEN
notes: 14-3-3 iota, Arabidopsis thaliana, single mutant T32F made by megaprimer PCR on pET28a-14-3-3 iota; Same limits as m9; also called M1; source: E. coli BL21(DE3), purified (IMAC, thrombin cleavage of the His6-tag, subtractive IMAC, preparative SEC)
[2]
  binding result: binds

B7: Arabidopsis thaliana 14-3-3 iota G54A (natural protein, UniProt Q9C5W6 1-268, looked up)
chain: MSSSGSDKERETFVYMAKLSEQAERYDEMVETMKKVARVNSELTVEERNLLSVAYKNVIGARRASWRIMSSIEQKEESKGNESNVKQIKGYRQKVEDELANICQDILTIIDQHLIPHATSGEATVFYYKMKGDYYRYLAEFKTEQERKEAAEQSLKGYEAATQAASTELPSTHPIRLGLALNFSVFYYEIMNSPERACHLAKQAFDEAIAELDTLSEESYKDSTLIMQLLRDNLTLWTSDLPEDGGEDNIKTEESKQEQAKPADATEN
notes: 14-3-3 iota, Arabidopsis thaliana, single mutant G54A made by megaprimer PCR on pET28a-14-3-3 iota; Same limits as m9; also called M3; source: E. coli BL21(DE3), purified (IMAC, thrombin cleavage of the His6-tag, subtractive IMAC, preparative SEC)
[2]
  binding result: binds

B8: Arabidopsis thaliana 14-3-3 iota N84H (natural protein, UniProt Q9C5W6 1-268, looked up)
chain: MSSSGSDKERETFVYMAKLSEQAERYDEMVETMKKVARVNSELTVEERNLLSVGYKNVIGARRASWRIMSSIEQKEESKGNESHVKQIKGYRQKVEDELANICQDILTIIDQHLIPHATSGEATVFYYKMKGDYYRYLAEFKTEQERKEAAEQSLKGYEAATQAASTELPSTHPIRLGLALNFSVFYYEIMNSPERACHLAKQAFDEAIAELDTLSEESYKDSTLIMQLLRDNLTLWTSDLPEDGGEDNIKTEESKQEQAKPADATEN
notes: 14-3-3 iota, Arabidopsis thaliana, single mutant N84H made by megaprimer PCR on pET28a-14-3-3 iota; Same limits as m9; also called M2; source: E. coli BL21(DE3), purified (IMAC, thrombin cleavage of the His6-tag, subtractive IMAC, preparative SEC)
[2]
  binding result: binds

B9: Arabidopsis thaliana 14-3-3 psi (natural protein, UniProt P42644 1-255, looked up)
chain: MSTREENVYMAKLAEQAERYEEMVEFMEKVAKTVDVEELSVEERNLLSVAYKNVIGARRASWRIISSIEQKEESKGNEDHVAIIKDYRGKIESELSKICDGILNVLEAHLIPSASPAESKVFYLKMKGDYHRYLAEFKAGAERKEAAESTLVAYKSASDIATAELAPTHPIRLGLALNFSVFYYEILNSPDRACSLAKQAFDDAIAELDTLGEESYKDSTLIMQLLRDNLTLWTSDMTDEAGDEIKEASKPDGAE
notes: 14-3-3 psi, Arabidopsis thaliana, non-epsilon group; construct provided by Prof; Robert J. Ferl; source: E. coli C41(DE3), purified (IMAC, thrombin cleavage of the His6-tag, subtractive IMAC, preparative SEC; aliquots before preparative SEC for SEC-MALS)
[1]
  stoichiometry N: 2

B10: Arabidopsis thaliana 14-3-3 upsilon (natural protein, UniProt P42645 1-268, looked up)
chain: MSSDSSREENVYLAKLAEQAERYEEMVEFMEKVAKTVETEELTVEERNLLSVAYKNVIGARRASWRIISSIEQKEDSRGNSDHVSIIKDYRGKIETELSKICDGILNLLEAHLIPAASLAESKVFYLKMKGDYHRYLAEFKTGAERKEAAESTLVAYKSAQDIALADLAPTHPIRLGLALNFSVFYYEILNSSDRACSLAKQAFDEAISELDTLGEESYKDSTLIMQLLRDNLTLWTSDLNDEAGDDIKEAPKEVQKVDEQAQPPPSQ
notes: 14-3-3 upsilon, Arabidopsis thaliana (Col-0), non-epsilon group; source: E. coli BL21(DE3), purified (IMAC, thrombin cleavage of the His6-tag, subtractive IMAC, preparative SEC; aliquots before preparative SEC for SEC-MALS)
[1]
  stoichiometry N: 2

B11: Arabidopsis thaliana 14-3-3 nu (natural protein, UniProt Q96300 1-265, looked up)
chain: MSSSREENVYLAKLAEQAERYEEMVEFMEKVAKTVDTDELTVEERNLLSVAYKNVIGARRASWRIISSIEQKEESRGNDDHVSIIKDYRGKIETELSKICDGILNLLDSHLVPTASLAESKVFYLKMKGDYHRYLAEFKTGAERKEAAESTLVAYKSAQDIALADLAPTHPIRLGLALNFSVFYYEILNSPDRACSLAKQAFDEAISELDTLGEESYKDSTLIMQLLRDNLTLWNSDINDEAGGDEIKEASKHEPEEGKPAETGQ
notes: 14-3-3 nu, Arabidopsis thaliana (Col-0), non-epsilon group; source: E. coli BL21(DE3), purified (IMAC, thrombin cleavage of the His6-tag, subtractive IMAC, preparative SEC; aliquots before preparative SEC for SEC-MALS)
[1]
  stoichiometry N: 2

B12: Arabidopsis thaliana 14-3-3 lambda (natural protein, UniProt P48349 1-248, looked up)
chain: MAATLGRDQYVYMAKLAEQAERYEEMVQFMEQLVTGATPAEELTVEERNLLSVAYKNVIGSLRAAWRIVSSIEQKEESRKNDEHVSLVKDYRSKVESELSSVCSGILKLLDSHLIPSAGASESKVFYLKMKGDYHRYMAEFKSGDERKTAAEDTMLAYKAAQDIAAADMAPTHPIRLGLALNFSVFYYEILNSSDKACNMAKQAFEEAIAELDTLGEESYKDSTLIMQLLRDNLTLWTSDMQEQMDEA
notes: 14-3-3 lambda, Arabidopsis thaliana, non-epsilon group; construct provided by Prof; Robert J. Ferl; source: E. coli C41(DE3), purified (IMAC, thrombin cleavage of the His6-tag, subtractive IMAC, preparative SEC; aliquots before preparative SEC for SEC-MALS)
[1]
  stoichiometry N: 2

B13: Arabidopsis thaliana 14-3-3 iota (natural protein, UniProt Q9C5W6 1-268, looked up)
chain: MSSSGSDKERETFVYMAKLSEQAERYDEMVETMKKVARVNSELTVEERNLLSVGYKNVIGARRASWRIMSSIEQKEESKGNESNVKQIKGYRQKVEDELANICQDILTIIDQHLIPHATSGEATVFYYKMKGDYYRYLAEFKTEQERKEAAEQSLKGYEAATQAASTELPSTHPIRLGLALNFSVFYYEIMNSPERACHLAKQAFDEAIAELDTLSEESYKDSTLIMQLLRDNLTLWTSDLPEDGGEDNIKTEESKQEQAKPADATEN
notes: 14-3-3 iota, Arabidopsis thaliana, epsilon group; pET28a construct obtained by gene synthesis; also called iota WT; source: E. coli BL21(DE3), purified (IMAC, thrombin cleavage of the His6-tag, subtractive IMAC, preparative SEC; aliquots before preparative SEC for SEC-MALS)
[1]
  stoichiometry N: 2
